# B1: HCMV glycoprotein US10, untagged, transiently expressed (natural protein)
# chain: ATEETREPTYFTCGCVIQNHVLKGAVKLYGQFPSPKTLRASAWLHDGENHERHRQPILVEGTATATEALYILLPTELSSPEGNRPRNYSATLTLASRDCYERFVCPVYDSGTPMGVLMNLTYLWYLGDYGAILKIYFGLFCGACVITRSLLLICGYYPPRE
# Legend:
# Experiment in all cases: co-IP
# [1] = biological target: β2m-assembled HA-HLA-C*07:02 (human | human (endogenous in HeLa))
# [2] = biological target: β2m-assembled HA-HLA-G*01:01 (human | human (endogenous in HeLa))
# [3] = biological target: β2m-assembled HA-HLA-C*05:01 (human | human (endogenous in HeLa))
binder,measurement,setting,value
B1,US10 signal intensity relative to the maximum (HLA-G-bound US10),[1],0.2 fold of max
same,US10 signal intensity relative to the maximum (HLA-G-bound US10),[2],1 fold of max
same,US10 signal intensity relative to the maximum (HLA-G-bound US10),[3],0.7 fold of max

# — publication PMC11189632
